Assay: yeast display, Sf9 membrane polyspecificity reagent, FACS + sequencing; frameworks hold sequencing errors
Summary of the method: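 Synthetic nanobody libraries on Saccharomyces cerevisiae BJ5465 were galactose-induced for 36–48 hours, stained 1 hour at 4 °C with 10% biotinylated, detergent-solubilized Sf9 membrane reagent and enriched on streptavidin microbeads. FACS then separated cells into low and high (top ~1%) gates by anti-HA (expression) and streptavidin (reagent binding) fluorescence. Genes were colony-PCR amplified, MiSeq 2 × 250 sequenced and CDR-length filtered. A clone's polyreactivity label is that of its gate of origin.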

Row | Sequence | polyreactivity (PSR sort gate)
1 | QVQLVESGGGLVQAGGSLRLSCAASGSTFPWYVMGGYRQAPGKERELVAAISLSGGRTYYADSVMGRFTISRDNAKNRVYLQMNSLKPEDTAVYYCAAEFKLVSHTYYYWGQGTQVTVSS | low polyreactivity
2 | QVQLVESGGGLVQAGGSLRLSCAASGSTFPYNAMGWYRPAPGKERELVAAITAGGARTYYADSVKGRFTISRDNAKNTVYLQMNSLKPEDTAVYYCNKVKATSYRYYYWGQGTQVTVSS | high polyreactivity
3 | QVQLVESGGGLVQAGGSLRLSCAASGSTFPYNAMGWYRQAPGKERELVAAITSSGRTNYADSVKGRFTISRDNANNTVYLQMNSLKPEDTAVYYCAAARWYAHRVDYWGQGTQVTVSS | low polyreactivity
4 | QVQLVESGGGLVQAGGSLRLSCAASGSTFPYNAMGWYRQAPGKERELVADISGDSGSTYYADSVKGRFTISRDNAKNTVYLQMNSLKPEDTAVYYCAGEGVHYAGDYGTGYDYWGQGTQVTVSS | low polyreactivity
5 | QVQLVESGGGLVQAGGSLRLSCAASGSTFPYNAMGWYRQAPGQERELVAAITRGGRTYYADSLKGRFTISRDNSKNTVYLQMISLKPEDTAVYYCAAYYSGYSKKFDYWGQGTQVTVSS | high polyreactivity
6 | QVQLVESGGGLVQAGGSLRLSCAASGSTFPYNTMGWYRQAHGKEREFVAAITGDGGTTYYADSVKGRFTISRDNAKNTVYLQMNSLKPEDTAVYYCAVPYPAEGYGGDYWGQGTQGTVSS | low polyreactivity
7 | QVQLVESGGGLVQAGGSLRLSCAASGSTFPYVMGWYRQAPGKERELVAAISQSTGGITNYADSVKGRFTISRDNAKNTVYLQMNSLKPEDTAVYYCAATSWRYQQSTRYKGRRYYSWGQGSQVTVSS | high polyreactivity
8 | QVQLVESGGGLVQAGGSLRLSCAASGSTFPYYAMGWYRLAPGKERELVAAISFRGTRTYYADSVKGRFTISRDNAKNTVYLQMNSLKPEDTAVYYCAADASTYYGTQWASYYYWGQGTQVTVSS | high polyreactivity
9 | QVQLVESGGGLVQAGGSLRLSCAASGSTFPYYAMGWYRQAPGKERELVAAISRRGTSTYYADSVKGRFTISRDNAKNTVYLQMNSLTPEDTAVYYCAAVGGAFPNRYYWGQGTQVTVSS | high polyreactivity
10 | QVQLVESGGGLVQAGGSLRLSCAASGSTFPYYAMGWYRQAPGKERELVAAITSGGSTNYADSVKGRFTISRDNAKNTVYLQMNSLKPEDTAVYYCAADFALPNALPEYDYGAFDYNYWGQGTQVTVSS | low polyreactivity
11 | QVQLVESGGGLVQAGGSLRLSCAASGSTFPYYGLGWYRQAPGKERELVAVISRRGTGTYYADSVKGRFTISRDNAKNTVYLQMNSLKPEDTAVYYCATAGYFIYWGQGTQVTVSS | low polyreactivity
12 | QVQLVESGGGLVQAGGSLRLSCAASGSTFPYYTMGWYRQAPGKERELVAAICGRGTSTYYADSVKGRFTISRDNAKNTVYLQMISLKPEDTAVYYCAARRADVQPYSPVYAYGAYDYWGQGTQVTVSS | high polyreactivity
13 | QVQLVESGGGLVQAGGSLRLSCAASGSTFPYYTMGWYRQAPGKERELVAAITWRGGRTYYADSVKGRFTISRDNAKNTVYLQMNSLKPEDTAVYYCAVYRRWYSGLYDYWGQGTQVTVSS | high polyreactivity
14 | QVQLVESGGGLVQAGGSLRLSCAASGSTFPYYVMGWYRQAPGKERELVAAIDESGDRTYYADSVKGRFTISRDNAKNTVYLQMNSLKPEDTAVYYCAAEGWYEYWYDYWGQGTQVTVSS | high polyreactivity
15 | QVQLVESGGGLVQAGGSLRLSCAASGSTFPYYVMGWYRQAPGKERELVAAISGSGTRTYYADSVKGRFTISRDNAKNTVYLQMNSLKPEDTAVYYCAARKYPQGFDYWGQGTQVTVSS | low polyreactivity
16 | QVQLVESGGGLVQAGGSLRLSCAASGSTFPYYVMGWYRQAPGKERELVATITNSGGSTYYADSVKGRFTISRDNAKNTVYLQMNSLKPEDTAVYYCAAVYWYGLYHRYYYWGQGTQVTVSS | low polyreactivity
17 | QVQLVESGGGLVQAGGSLRLSCAASGSTFQFNTMGWYRQAPGKERELDAAITYSGGSTYYADSVKGRFTISRDNAKNTVYLQMNSQKPEDTAVYYCAADIITYDYPSYDGYIRYPYYYWGQGTQVTVTS | low polyreactivity
18 | QVQLVESGGGLVQAGGSLRLSCAASGSTFQFNVMGWYRQAPGKERELVAAITSGASTYYADSVKGRFTISRDNAKNTVYLQMNSLEPVDTAVYYWAVDYSFRYDYVQRYYYWGQGTQVTVSS | high polyreactivity
19 | QVQLVESGGGLVQAGGSLRLSCAASGSTFQFYAMGWYRQAPGKEREFVAGIRSSGGTYYADSVKGRFTISRDNAKNTVYLQMNSLKPEDTAVYYCAAVSSYSPYRRTYYYWGQGTQVTVSS | high polyreactivity
20 | QVQLVESGGGLVQAGGSLRLSCAASGSTFQFYAMGWYRQAPGKERELVAAIDGSDGDTYYADSVKGRFTISRDNAKNTVYLQMNSLKPEDTAVYYCNADRDALVGYDYDYWGQGTQVTVSS | low polyreactivity
21 | QVQLVESGGGLVQAGGSLRLSCAASGSTFQGNAMGWYRHAPGKERELVAAISRSGGSTYADSVKGRFTISRDNAKNTVYLQINSLKPEDTAVYYCAAYSGVGYLWFDYWGQGTQVTVSS | low polyreactivity
22 | QVQLVESGGGLVQAGGSLRLSCAASGSTFQGNAMGWYRQAPGKERELVAAISRSGGSTYADSVKGRFTMSRDNAKNTVYLQMNSLKPEDTAVYYCAAYSGVGYLWFDYWGQGTQVTVSS | low polyreactivity

Row | Sequence | polyreactivity (PSR sort gate)
23 | QVQLVESGGGLVQAGGSLRLSCAASGSTFQGYALRWYRQAPGKERELVAAITKRSGRTYYADSVKGRFTISRDNAKNTVYLQMNSLKPEDTAVYYCAKVTSYSEYDYWGQGTQVTVSS | high polyreactivity
24 | QVQLVESGGGLVQAGGSLRLSCAASGSTFQINAMGWYRQAPGKERELVARNSGSGSRTYYADSVKGRFTISRYNAKNTVSLQMNSLKPEDTAVYYCAARGTGKGYDSWGQGTQVTVSS | high polyreactivity
25 | QVQLVESGGGLVQAGGSLRLSCAASGSTFQIYAMGWYRQAPGKETELVAAITSSSSTNYADSVKGRFTISRDNAKNTVYLQMNSLKPEDTAVYYCAADVSWRSNWYDYWGQGTQGTVSS | low polyreactivity
26 | QVQLVESGGGLVQAGGSLRLSCAASGSTFQKNVMGWYRQAPGKERELVAAITSVGSTNYADSVKGRFTISRDNAKNTVYLQMNSLKPEDTAVYYCAKDQVPYYYVFGVYDYDYWGQGTQVTVSS | low polyreactivity
27 | QVQLVESGGGLVQAGGSLRLSCAASGSTFQLYAMGWDRQAPGKERELVAAITSSAGRTYYADSVKGRFTISRDNAKNTVYLQMNSLKPEDTAVYYCAKDGSFTFWGQGTQVTVSS | low polyreactivity
28 | QVQLVESGGGLVQAGGSLRLSCAASGSTFQNNPMGSYRQAPGKERELVATISRRGGSTYYADSVKGRFTISRDNAKNTVYLQMNRLKPEDTAVYYCAAQAPNYAHRYYYWGQGTQVTVSS | high polyreactivity
29 | QVQLVESGGGLVQAGGSLRLSCAASGSTFQQYGMGWYRQAPGKERELVAAITFSDGNTYYADSVKGRFTISRDNAKNTVYLQMNSLKREDTAVYYCNAGYSYGVSYAEGGYWGQGTQVTVSS | low polyreactivity
30 | QVQLVESGGGLVQAGGSLRLSCAASGSTFQRNAMGWYRQAPGKERELVAVITRRGASTYYADSVKGRFTISRDNAKNTVYLQMKSLKPEDTAVYYCNKVPYGRDHHLLFDYWGQGTQVTVSS | high polyreactivity
31 | QVQLVESGGGLVQAGGSLRLSCAASGSTFQRYAMGWSRQAPGKERELVAAIDTVGSTNYADSVKGRFTISRDNAKNTVYLQMNSLKPEDTAVYYCAVVTPYWSFYEQVIPSNYWGQGTQVTVSS | low polyreactivity
32 | QVQLVESGGGLVQAGGSLRLSCAASGSTFQSNAMGWYRQAPGKERELVAAITVSAGSTYYADSVKGRFTISRDNAKNTVYLQMNSLKPEDTAVYFCAANRYVYPSYRFDYWGQGTQVTVSS | low polyreactivity
33 | QVQLVESGGGLVQAGGSLRLSCAASGSTFQSYAMGWYRPAPGKERELVATITWSSGRTYYADSVKGRFTISRDNAKNTVYLQMKSLKPEDTAVYYCAARKRPFYKYDYWGQGTQVTVSS | high polyreactivity
34 | QVQLVESGGGLVQAGGSLRLSCAASGSTFQSYTMGWYRQAPGKERELVATITSTSSTSYADSVKGRFTISRDNAKNTVYLQMNSLKPEDTAVYYCNAEGLHWGQGTQVTVSS | low polyreactivity
35 | QVQLVESGGGLVQAGGSLRLSCAASGSTFQTYAMGSYRPAPGKERELVAAISKTGASTYYADSVKGRFTISRDNAKNTVNLQMNSLKPEDTAVYYCAAGRYTSYYPRYYYWGQGTQVTVSS | high polyreactivity
36 | QVQLVESGGGLVQAGGSLRLSCAASGSTFQTYARGWYRQAPGKERELVASIDYSGGSTYYADSVKGRFTISRDNAKNTVYLQMNSLKPEDTAVYYCAKALSQTWYDGQYGYWGQGTQVTVSS | low polyreactivity
37 | QVQLVESGGGLVQAGGSLRLSCAASGSTFQVYAMGWYRQAPGKERELVAAISNGGRTNYADSVKGRFTISRDNAKNTVYLQMNSLKPEDTAVYYCNADQVWWSFDRVLVGYEYWGQGTQVTVSS | low polyreactivity
38 | QVQLVESGGGLVQAGGSLRLSCAASGSTFQVYAMGWYRQAPGKERELVASITSGGSTYADSVKGRFTISRDNAKNTVYLQINSLKPEDTAVYYCAAGGYFYPYTYDYWGQGTQVTVSS | low polyreactivity
39 | QVQLVESGGGLVQAGGSLRLSCAASGSTFQWYAMGWYRQAPGKERELVAGITRTGSTYYADSVKGRFTISRDNAKNTVYLQMNSLKPEDTAVYYCAAKWHTASGKYYYWGQGTQVTVSS | high polyreactivity
40 | QVQLVESGGGLVQAGGSLRLSCAASGSTFQWYTMGWYRQAPGKERELVAAISRSGGRTYYADSVKGRFTISRDNAKNTVYLQMNSLKPEDTAVYYCAARWGRLPEQYRYDYWGQGTQVTVSS | high polyreactivity
41 | QVQLVESGGGLVQAGGSLRLSCAASGSTFQYKAMGWYRQAPGKERELVAAISRRGGSTYYADSVKRRFTISRDNAKNTVYFQMNSLKPADTAVYYCAKEKGYWSGYDYWGQGTQVTVSS | high polyreactivity
42 | QVQLVESGGGLVQAGGSLRLSCAASGSTFQYNAMGWYRQAPGKERELVARISSSGGRTYYADSVKGRFTISRDNAKNTVYLQMNSLKPEDTAVYYCNKGYPYVAYDYWGQGTQVTVSS | high polyreactivity
43 | QVQLVESGGGLVQAGGSLRLSCAASGSTFQYYAMGWYRQAPGKERELVAAISDGTNTNYADSVKGRFTISRDNAKNTVYLQMNSLKPEDTAVYYCAARFYSIVKYVGIGTDEYDYWGQGTQVTVSS | low polyreactivity

Source: the nanobody polyreactivity screen of Harvey et al. (2022)
